Measured values: the DeepSol protein solubility set

experiment: soluble on expression in E. coli; label from the status in PepcDB or PDB records

Soluble on expression in E. coli, not soluble:
MGSDKIHHHHHHMEEQREILEQLKKTLQMLTVEPSKNNQIANEEKEKKENENSWCILEHNYEDIAQEFIDFIYKNPTTYHVVSFFAELLDKHNFKYLSEKSNWQDSIGEDGGKFYTIRNGTNLSAFILGKNWRAEKGVGVIGSHVDALTVKLKPVSFKDTAEGYGRIAVAPYGGTLNELWLDRDLGIGGRLLYKKKGTNEIKSALVDSTPLPVCRIPSLAPHFGKPAEGPFDKEDQTIPVIGFPTPDEEGNEPPTDDEKKSPLFGKHCIHLLRYVAKLAGVEVSELIQMDLDLFDVQKGTIGGIGKHFLFAPRLDDRLCSFAAMIALICYAKDVNTEESDLFSTVTLYDNEEIGSLTRQGAKGGLLESVVERSSSAFTKKPVDLHTVWANSIILSADVNHLYNPNFPEVYLKNHFPVPNVGITLSLDPNGHMATDVVGTALVEELARRNGDKVQYFQIKNNSRSGGTIGPSLASQTGARTIDLGIAQLSMHSIRAATGSKDVGLGVKFFNGFFKHWRSVYDEFGEL
MGSDKIHHHHHHMEFSLERDEARLVEIASIQETYGTFLIEHLDEKTAIISGSWDPLRRCAFVNYVGLIVGEAEDLSAFQEGLPAGKFYIRYRDIDGDKPMSEAAIGDMLKARGRVSFRDPDYVVRVVHHGIFYVTKVVYERDKKQFIERKAPRRPFFSPVSMDPKYARFLVNTAHVRENQLLIDPFCGTGGILIEAALMGIRVIGNDVALSMAAGARTNLKHFHVEDFHIYNMDVSDLPVRDVDGIATDMPYGRNSYASEDLEVLYERSFRKFHEMLKPHGYASFVVSDPDLAELARPFFNIVHDVPVYQHRSLTRHFITAMRKD
MGSDKIHHHHHHMEGGAMMLLEVKNVTKKFGDKVVLKNISFTLEEGESLGILGKSGAGKSVLLHMLRGMDGYEPTEGQIIYHVSYCEKCGYVDVPSKAGTPCKKCGNELKKIEVDFWNDKKYTYNLKRKIAIMLQRTFALYGEKTVLENILEALHQAGYEGKEAIDMALKLIKMVKLEHRITHIARDLSGGEKQRVVLARQIAKEPFIFLADEPTGTLDPQTAKLVHSALKELVIKNKISLILTSHWPEVIAELTEKAIWLDKGEIIMEGTSEEVVNKFMETVKEFKKPETEVEIKEDIIKLENVSKHYCSVERGVIKAVDNVTLNIREREIFGLVGTSGAGKTTLAKIIAGVLPPSKGKYWFRVGDEWVDMTKPGPMGRGRAKRYIGILFQEYALYPHRTILENLTEAIGLELPDEFARMKAVYTLVSVGFSEEEAEEILDKYPHELSVGERHRCALAQVLIKEPRVVILDEPTGTMDPITRNTVAESIHKSRIELEQTYIIVSHDMDFVLNVCDRAGLMRNGKLIKVGKPEEIVALLTEEEKQEMFGQK
MGSDKIHHHHHHMEGIKMRSVVVKEPGQLNIESRPVPVPGAHEVRVKIAFAGICGSDVHIYHGHNPFAKYPRVIGHEFYGIIDAVGEQVSPARIGERVAVDPVVSCGHCYPCSVGRPNVCTQLQVIGVHRDGGFSDYACVPAKNAWRIPEAISDRQATMVEPFTIAANITAQLQPTAQDIALVYGAGPMGLTIIQALKGVYGVKQVIVVDRIAERLQMARENGADLTLDNTDQPLAEQLAQRQLAPTLVIDAACHPAILQEAILLASPAARIGILGFSGEASTLTQQSITSKEISIFSSRLNSGRFPLVIDWMEKGLIRPEALITHCMPLEQVKEAMEIFANDRKTCCKVLLQLG
MGSDKIHHHHHHMEGKVKKAFPGGNTSQGSYSFFDYIIPENVKRVFCLKGGPGVGKSSLMKKIYKEFLHRGYDIDLYHCPSDPSSLDGLVIKKLGVVLMDATAPHTMDPKLPGALDEIINLGDYWNTEELEKNKQEISVYDKDISNSFKRAFKFLKSAEPIFRDIEEKYSDCMDYGKVNLVTEEFIKRLFDGVKSTGNLKREKHLFGSAITPVGCLDYTENILKDVKKVYYLDGEIGTGKTTLLNKVYKKAIEKGLNVEVYHYPLIPEKIETVLLTDLDIGITISTTFKEEDTIDLNQFLNREKLLKYEEDIKFDEKVLDDLICWAVLNLKRAKSKHDIIESYYSPNMRFDEVGKLRDKLIKRILKYEENL
MGSDKIHHHHHHMEHAQMSEKTTNELEKLREHIDSVDQQLLHLLRKRLDLVAQVGGVKHAAGVPIYAPQREASMLAKRREEAAKMNVSPQLIEDILRRLMRESYLNEKDVGFKQVKTDLGHVVIVGGQGKLGGLFAQMLSLSGYQVKSLDKDDWQQADAIFDGAGMVIVTVPISITCELIRDKLTSLPSSCILADLTSIKEKPLEAMLASHQGPVVGLHPMFGPDVGSLAKQVVVVCHGRGREQYEWLLEQIGIWGARLVEADAQQHDKAMQLVQAMRHFSSFVYGLNLYREAADIDNLLQFSSPIYRLELAMVGRLFAQSPELYADIIFAQQESLTAIGDYLDNYAQALELLKRGDRQGFIREFEEVAAWFGDFAPQFQRESRAMLQSVNDMKTG
MGSDKIHHHHHHMEHFLYRLNFSTALHIGKDAGGPSLDDGQMIIHADTLFAALCCEAVRGGRITQLVKYFADGILSISDALPYAGDEIFLPRPVLFTENRKRAGDSALAKALKNKDYIPLSFFGDYLKSMQQLDFNLESLKSESDFGYLTTLTRVAIKGNSPPLPYHVAAWRFADGCGLYIIVRSEQEEARTMFASLLAELGLSGIGGKQSSGWGKFEVKPGPVPDELLRLLEDKQAEYQMLMGTALPVDNELDTVLLNGWYKLLRRGGFIRSESYAARQMKKKTIYMLASGSCLRSRFKGAMLDLSDNGAHPVWRCGNTLFVGVTI
MGSDKIHHHHHHMEIEIATIGGYEEVGRQMTAVRAGDDIVIFDMGLNLSKVLVHDNVETEKMHSLDLIDMGAIPDDRVMSDLEGDVKAIVPTHGHLDHIGAISKLAHRYDAPIVGSPFTIELVKGEIESEQKFGVENDLVKMEAGGTMEIGDRCELEFVHVTHSIIDAINPVLHTPEGAVVYGLDKRMDHDPVLEDPIDMERFREIGREGEGVLCYIEDCTNAGKKGRTPSESTARRHLKDVLTSVADYDGGIVATTFSSHISRVSSLVEFAKEIGREPILLGRSMERYSGTAERMGRVNFPDDLGMFGHRKSVDRAFKRVMNEGKENFLPIVTGHQGEPQAMLTRMGRGETPYDIEDGDKIIFSASVIPEPTNKGQRYQSEQLLRMQGARIYDDIHVSGHLREEGHYQMLDALQPQHLIPAHQDMKGMAPYAKLAKSQGYKIGRDLHMTENGNTIQLVE
MGSDKIHHHHHHMEKLYEIYTGGAEDSFEVGKLLFEENSWQLYLTLDELGRDDSLLLIRKPAVTRLLDQSDYLAEIQRRRKMLTQKGLADPFKLEDKVTLIKSVGSFMDLLPGQVVYFGLEGEDYQQWGYIDEISAGQVNFAAYPSGKYRPFAGEVAVSQLRRLAAFSGEWLLDNPKLRDTEDTTVDGLREVHLKEDPASFAVGRLLCADDDFSLYLTVDEIGRDDSLLLVKKLAVDRVIDQSEYLQDTSRCRRQLKEKGLEDPFEVQGKAANIKQMQDFWRLAAGQVVSFVMKDEEEAEYGILKSKEGDALSFGQYPSGKYETFAGQISLVEVDRLEAFGGELTLENNNC
MGSDKIHHHHHHMELPCSLLCFVETLAVLRRSKSLSNEIIATGSRLVAGPSGAQDRAMTATRYDKNAKNVLGQELVPCSLDPVTGFYRNGCCETGPHDLGLHTVCAVMTRDFLAFSKAQGNDLSTPRPDLAFPGLKPGDRWCLCAGRWKEALDAGMAPQVVLEATHEEMLAVVPLGVLKDHAAA
MGSDKIHHHHHHMELQLQNLALSFKNKPNVIHDISLTMNGGSIVGIVAPNGTGKTTLLRLILNDLKPQAGKVLVDGKSYGSQKQSLALHRQMCLFPVQDDLYPDLSGKAHLEYYAKLWHNRSKSVKQIINVLDMRDYINQPVRTYSMGMKQRLCFGMVMAANTPIMLLDEFMNGLDTINVARMSRILRGLRAEGKLIITVSHLLNNLQGYADLIYFMRDGKIIKTIDQHEQQPLYVQVAEENASRLPRMPWEHYPNGMLVLPIQKLPGEHFNQLLLGLAAHHIPFKLGPLDLDTYFNEFYETDQ
MGSDKIHHHHHHMELVYKITYHRIQAHYLPKLVQAVQFVSEENLWKQGESVNSIGGIVLHICEHMQRNTSRYKNPNIVFEKGIEEYFPTKRQHTEVLLQYVEKVFDEWGKAYIQAWEEKRHIELHSLLHLVEHTSYHLGQIVDRTKLIKGQQFNFCQNGINEKNLRTRVETSKF
MGSDKIHHHHHHMENERKRILELVKQGIISTEEALTLLENISKKEGKTAAKENIRRSAAPREEEQVEEETKEEPSYDYSKGWNNQGNPYTPPKSRKRRPEPTPENHERDEEEGGENSSKDREDSMRNMVNDLSQAGEKIGSFLNSAFKQVKDMPFPFLTSTKIERDFIYHDTTLSILEFEIANGNIEFKPSDSNDIKVHAMIKLFKEYPEDEALKIFFDKTTLRVDEETLRFESKSKQIVTNLTVYLPRREYDYVSVKMLNGNFHMDELSGRDLFVKTTNGNISIGTLNATLAEIESINGNVRIQNGEIRDVALKTFNGNVAVKGNYYSTNLQTKNGNVNYQLTGNEATFLKAKTGAGNIDVVVPAAIGVDGRFHTNLGKLLLDLKDAEILESKTESVSKSIIFTKLPDAADSSLKIEAEATTGSVKIRDVK
MGSDKIHHHHHHMENKLLVFLEAIQQHNSMTKAAQSLFISQPYISRTIKSAETHFGTPLIDRGHHPLELTYAGERLLTYLQSDARLHQRMNTELKEISQNKYQSMTIGITPPMANAWFSQTLPAFYQRFPNIRTKILEITTSKAETLLASHQLDFFIGKTIHQTNVKTIPLQTISLSLVIPKTAGIYQSNQFWRPFTPTILTGMTGEPVIRAVGEARFQELVDHYFADKGIQTIPLIEVDNSRFALSLTLQGLGSIVLATAMLARLATEPAKYPINAFKLPTSELSLDFSIAYLPSHVLAKPIAYLVEQACQTFNPAIDF
MGSDKIHHHHHHMENLKTYFYTEDGVVKAVDGVSFEVREGETLGIVGESGSGKSVTSLSIMRLLDQNGKIVDGKIIFKGRNLLELSENEMRKIRGKEIAMIFQEPMVALNPVFTIGDQIMEAIILHQNVSEKEARKMAIDLLRKVGIPEPEKRVDEYPHQLSGGMRQRAMIAMALSCRPSLLIADEPTTALDVTIQAQILELMKELQKEYGMAIILITHDMGVVAEMSDKVAVMYAGKVVEYGDVKTIFTEPKHPYTYALLESIPRIDVEQERLKSIPGNVPDPLNFPPGCKFHPRCEFFEKGKCDVEEPELEDLDGNHKVRCFFWQKLDEMRHAKSEV
MGSDKIHHHHHHMERSDAAMQPDAVSRPEIVMATRGITMLFPGTKALDNVDYNVYRGKVNVIIGENGAGKSTLMKILAGVQQPTSGQILLNGEAVRIADTRDAAAKGIGMVHQELNLSENLSVAENIFLGRELQKGVAPIDYLEQERIAAELMSRLDQAISPRTEVASLKVGQQQLVEIAKALADQADILILDEPTSALSKTEVEILFRVIRELTRQNVSIIYISHRLEELMAIGDYITILRDGCFQAEAAVSDIDVPWIVREMLGGDPVTSFLHSGRTFGAPILEAEHLTCLNDAGHQVVNDVSLMVREGEIVGIYGLMGAGRTELFECLLGIQNDYLGKIYLDSKPVSPRLSTAQRIRMGMSLVPEDRKKTGIFPLSSVASNLTIASLWRRLKYGMAIFQRQEQEVVASTVGRLAIKVSSPEVEIQALSGGNQQKVVIGRSLLTSPKVLLLDEPTRGIDVGAKADVFEMMVGLSEQGIGVLFSTSDLKEIMAVSDRILVMSNGKLTANIVRQSASESALVSASAQGF
MGSDKIHHHHHHMESLKKCFDLQGKEIVSIVGSGGKTSLMWALAKTYRKEAVLVSTTTKIGFPQRQLYDYFYTNHFEKITPNICGITLAGTAINNQTKLTMPAMTSFQTLFQHFTKVFLEADGSKQRPLKGWSSYEPVILKETTTTIGVLPISVIGQKIDETTIHRLPLFLELTDAQLQEPITETLLAQLIDHPKGLFKESQGQRILCLNQTHTRREFVQAMNVCLQLPKSCFEKLDKIIACNMELEKGLILWEKSVKTSKKN
